One molecule from patent publication US20250066490A1 (PROFOUNDBIO US, published 2025) can be followed below.

One may read the EC50 as the concentration at which the effect is half-maximal. What is called Kd is the concentration at which binding is half-saturated. For orientation: koff means the first-order rate constant of dissociation. Read a high koff as a short-lived complex. Broadly, the kon is the second-order rate constant of association. Higher therefore signals fast association.

Assay [1] has as its target T1, human CD70 recombinant protein (human, UniProt P32970 39-193, limits assumed).
T1 construct: May be the same reagent as ACRO CDL-H5246; also called CD70 protein
T1 sequence (looked up): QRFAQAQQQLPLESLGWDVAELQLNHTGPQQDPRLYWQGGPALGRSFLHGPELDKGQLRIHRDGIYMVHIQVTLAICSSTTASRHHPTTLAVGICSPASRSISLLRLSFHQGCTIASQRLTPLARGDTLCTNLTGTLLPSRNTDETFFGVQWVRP
Description: ELISA, IgG titrated on coated human CD70 recombinant protein (2 µg/ml), anti-human Fc-HRP, OD450. On the procedure: (§1) The binding specificity of the CD70 antibodies was tested by ELISA according to a standard protocol. Briefly, 96-well micro-plates were coated with 2 μg/ml of human or cynomolgus CD70 recombinant protein in PBS at 100 μl per well and incubated overnight at 4° C. The plates were washed twice with TBS+0.5% Tween20. 200 μL of blocking buffer (2% BSA in PBS) was added to each well, and the plates were incubated at 37° C. for 2 hours. The plates were washed using the wash buffer mentioned above. Serially diluted antibodies were added to the ELISA plates using 100 μl per well, and the plates were incubated for 1 hour at room temperature. Then plates were washed 3 times. HRP conjugated anti-human Fc antibody solution (Sigma, I18885-2ML, diluted with blocking buffer) was added to the plates using 100 μl per well. The plates were incubated at room temperature for 1 hour and then washed 3 times. Then the TMB solution was added to plates using 100 μl per well and the plates were placed at RT for 5-15 mins. Then the stop solution (2M H2SO4) was added using 50 μl per well. The absorbance was measured at A450 and A630.
(In general: ELISA stands for enzyme-linked immunosorbent assay.)

Assay [2] deals with T2, human CD70 expressed on the cell surface of tumor cell lines (human, UniProt P32970 1-193).
T2 construct: whole, on cells
T2 sequence (looked up): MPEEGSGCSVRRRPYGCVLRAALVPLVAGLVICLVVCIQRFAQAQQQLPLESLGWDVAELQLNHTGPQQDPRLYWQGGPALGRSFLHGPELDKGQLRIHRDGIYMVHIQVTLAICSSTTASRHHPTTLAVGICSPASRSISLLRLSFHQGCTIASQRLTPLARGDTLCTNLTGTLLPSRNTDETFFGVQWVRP
Nature of the assay: flow cytometry on U251 cells, PE anti-human Fc, MFI; same fit as Table 6, which prints it in nM. On the procedure: (§2) The lead antibodies were tested for binding to renal carcinoma cells and glioblastoma cells expressing CD70 on the cell surface by flow cytometry. […] U251 cells were cultured with MEM medium containing of 10% FBS and 1% NEAA+1 mM sodium pyruvate. DBTRG-05MG cells were cultured with DMEM medium (Gibco, Cat #C11995500BT) containing of 10% FBS. Each of the lead antibodies and the controls were incubated for 30 mins with the different cell lines (3×10⁵ cells per well) in 0.2 ml FACS buffer (1×PBS with 0.1% BSA) at 4° C. Then, the cells were pelleted, washed, and incubated at 4° C. for 30 mins with 100 μl of 1:200 diluted PE-conjugated anti human Fc (Abcam, Ab98596) in FACS buffer. The cells were pelleted again, washed with PBS, resuspended in FACS buffer and analyzed by flow cytometer (Beckman, CytoFLEX).
(§3) Antibodies 2H8 and 2D2 had slightly higher binding ability to the cell lines than that of antibody 69A7.
In general terms: Flow cytometry measures light scatter and fluorescence of single cells or particles in a stream.

In assay [3] the target is T2, human CD70 expressed on the cell …. Description: flow cytometry on U251 cells. On the procedure: as §2, §3
The target is the same in assay [4]. Nature of the assay: flow cytometry on 786-O cells. On the procedure:
as §2, §3

For assay [5] the target is unchanged. Nature of the assay: flow cytometry on Caki-1 cells. On the procedure:
as §2, §3

Assay [6] has the same target. Nature of the assay: flow cytometry on DBTRG-05MG cells. The protocol: as §2, §3
Assay [7] has as its target T3, CD70 ECD (antigen immobilized on the CM5 chip) (UniProt P32970 39-193).
T3 construct: extracellular domain; also called CD70 antigen
T3 sequence (looked up): T1 sequence (looked up)
Description: SPR (Biacore T200), CD70 ECD on CM5 chip, IgG as analyte. On the procedure:
(§4) The immobilization of antigen CD70 ECD was performed at 25° C. with HBS-EP as the running buffer. Sensor chip surface of flow cells 1, 4 were activated by freshly mixed 50 mmol/L N-Hydroxy succinimide (NHS) and 200 mmol/L 1-ethyl-3-(3-dimethylaminopropyl) carbodiimide hydrochloride (EDC) for 420s (10 μL/min). Afterwards, CD70 antigen diluted in 10 mmol/L NaAC (pH 4.5) was injected into flow cell 4 to achieve conjugation of the appropriate Response Unit, while flow cell 1 was set as a blank. After the amine coupling reaction, the remaining active coupling sites on chip surface were blocked by 420s injection of 1 mol/L ethanolamine hydrochloride.
(§5) The assay was performed at 25° C. and the running buffer was HBS-EP. Diluted antibodies were injected over the surface of flow cells 1 and 4 during the association phase, followed by injecting running buffer as the dissociation phase. All the data were processed using Biacore T200 Evaluation software version 3.1. Flow cell 1 and a blank injection of buffer in each cycle were used as a double reference for Response Units subtraction. Kinetic data of the interaction between the antibodies and CD70 antigen were obtained through affinity measurement.

Assay [8] addresses T2, human CD70 expressed on the cell …. Nature of the assay: flow cytometry on DBTRG-05MG cells, PE anti-human Fc, MFI; same fit as Table 6, which prints it in nM. On the procedure:
as §2, §3

For assay [9] the target is unchanged. Description: flow cytometry on 786-O cells, PE anti-human Fc, MFI; same fit as Table 6, which prints it in nM. The protocol:
as §2, §3

The target in assay [10] is T4, cynomolgus CD70 recombinant protein (cynomolgus, UniProt A0A2K5WTU9 39-190).
T4 construct: also called cyno-antigen; cynomolgus CD70 protein
T4 sequence: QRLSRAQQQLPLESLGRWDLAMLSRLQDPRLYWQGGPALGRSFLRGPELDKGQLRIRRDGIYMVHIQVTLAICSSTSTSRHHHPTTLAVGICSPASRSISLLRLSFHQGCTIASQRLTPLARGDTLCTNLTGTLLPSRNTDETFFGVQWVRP
Nature of the assay: ELISA, IgG titrated on coated cynomolgus CD70 recombinant protein (2 µg/ml), anti-human Fc-HRP, OD450. The protocol:
as §1

For assay [11], the target named is T3, CD70 ECD (antigen immobilized on the …). Nature of the assay: SPR (Biacore T200), CD70 ECD on CM5 chip; upper end tied to 2A4P0L1 by the KD values of Table 8. On the procedure: as §4, §5
Assay [12] concerns the target T2, human CD70 expressed on the cell …. Description: flow cytometry on Caki-1 cells, PE anti-human Fc, MFI; same fit as Table 6, which prints it in nM. The protocol:
as §2, §3

Assay [13] shares this target. Nature of the assay: cell-based or functional assay.

B1: 2A4P0L1, full IgG (antibody, V domains shown)
VH: QVQLQESGPGLVKPSETLSLTCTVSGGSVSSDYYYWSWIRQPPGKGLEWLGYIYYSGSTNYNPSLKSRVTISVDTSKNQFSLKLRSVTTADTAVYYCARGDGDYGGNVFPYWGQGTLVTVSS
VL: EIVLTQSPATLSLSPGERATLSCRASQSVSSYLAWYQQKPGQAPRLLIFDASNRATGIPARFSGSGSGTDFTLTISSLEPEDFAVYYCQQRLKFPLTFGGGTKVEIK
On to B1, for which the EC50 in assay [1] is 0.263 µg/mL; in [2], 0.708 µg/mL; in assay [3] it was 4.72 nM; in assay [4], 2.98 nM; in assay [5], 5.44 nM; in assay [6], 5.84 nM. The EC50 is 0.876 µg/mL in [8], 0.447 µg/mL in assay [9], 0.00335 µg/mL in assay [10] and 0.816 µg/mL in assay [12]. In assay [7], this molecule registered a Kd of 38.6 nM. The same molecule displayed a koff in assay [7] of 0.00197 s⁻¹. In [7], this molecule came in with a kon of 51000 M⁻¹ s⁻¹. In addition, in assay [11], the “fold improved affinity against parent antibody 69A7” value was 3 to 8 fold. Besides, the “Internalization rate (%) on 786-O” value in assay [13] is 61%. The “Internalization rate (%) on Caki-1” value in [13] was 22%.
